Here are results for eight molecules from patent publication US20260132197A1 (NANJING LEGEND BIOTECH, published 2026).

Experiment [1] concerns the target T1, human CD47 on cells (SHP-77 tumor cells, human red blood cells, CCRF-CEM cells, human CD47 CHO-K1 stable cell … (human, UniProt Q08722 19-323)).
T1 construct: whole, on cells; also called RBC
Nature of the experiment: flow cytometry on human RBCs.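 Also: antibody binding measured by flow cytometry as geometric mean fluorescence intensity over a range of antibody concentrations, with EC50 and maximum taken from a sigmoidal dose-response fit.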

For experiment [2], the target named is T1, human CD47 on cells (SHP-77 tumor …). Briefly: flow cytometry on SHP-77 cells.
The target of experiment [3] is T2, Human CD47-C33G (human, UniProt Q08722 19-135).
T2 construct: also called CD47 mutein with C33G mutation
Nature of the experiment: SPR, IgG captured, CD47 in flow; exp 2; estimated, out of instrument limit.

The target of experiment [4] is T3, wild type human CD47 (Acro Biosystems, cat. no. CD7-H5227) (human, UniProt Q08722 19-139).
T3 construct: Bought protein used as SPR analyte; also called Human CD47 wt; wild-type CD47
Nature of the experiment: SPR, IgG captured, CD47 in flow; exp 2. For orientation: In SPR one partner is held on a chip, and binding of the other changes the refractive index at the surface.

Experiment [5] concerns the target T2, Human CD47-C33G. Briefly: SPR, IgG captured, CD47 in flow; exp 2.
Experiment [6] deals with T3, wild type human CD47 (Acro Biosystems, …). Nature of the experiment: SPR, IgG captured, CD47 in flow; exp 4.
The target in experiment [7] is T2, Human CD47-C33G. Nature of the experiment: SPR, IgG captured, CD47 in flow; exp 4.
Experiment [8] deals with T1, human CD47 on cells (SHP-77 tumor …). Briefly: flow cytometry on human RBCs;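 also: antibody binding measured by flow cytometry as geometric mean fluorescence intensity over a range of antibody concentrations, with EC50 and maximum taken from a sigmoidal dose-response fit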; plateau not reached, not accurate. (In general: Flow cytometry measures light scatter and fluorescence of single cells or particles in a stream.)
Experiment [9] shares this target. Nature of the experiment: flow cytometry on human CD47 CHO-K1 cells.
Experiment [10] has the same target. Nature of the experiment: cell-based or functional assay.
In experiment [11] the target is T4, cynomolgus CD47 on CHO-K1 stable cell line (cynomolgus, UniProt A0A5F8AK49 19-323 (rhesus entry)).
T4 construct: whole, on cells; also called cynomolgus CD47/CHO-K1
Nature of the experiment: flow cytometry on cynomolgus CD47 CHO-K1 cells.

Experiment [12] has as its target T1, human CD47 on cells (SHP-77 tumor …). Nature of the experiment: flow cytometry on human CD47 CHO-K1 cells; plateau not reached, not accurate.
For experiment [13], the target named is T3, wild type human CD47 (Acro Biosystems, …). Nature of the experiment: SPR, IgG captured, CD47 in flow; exp 4. This is another data set of the same source.
The target in experiment [14] is T2, Human CD47-C33G. Briefly: SPR, IgG captured, CD47 in flow; exp 4. The source holds these as a separate data set.
For experiment [15], the target named is T4, cynomolgus CD47 on CHO-K1 stable cell …. Nature of the experiment: flow cytometry on cynomolgus CD47 CHO-K1 cells; plateau not reached, not accurate.
Experiment [16] addresses T2, Human CD47-C33G. Nature of the experiment: SPR, IgG captured, CD47 in flow; exp 2; estimated, out of instrument limit. This is another data set of the same source.
Experiment [17] deals with T3, wild type human CD47 (Acro Biosystems, …). Nature of the experiment: SPR, IgG captured, CD47 in flow; exp 2. The source holds these as a separate data set.
Experiment [18] concerns the target T2, Human CD47-C33G. Nature of the experiment: SPR, IgG captured, CD47 in flow; exp 2. This is another data set of the same source.
For experiment [19], the target named is T2, Human CD47-C33G. Nature of the experiment: SPR, IgG captured, CD47 in flow; exp 2. The source holds these as a separate data set.

Numbering of substitutions follows the chain as printed. Names and notes keep the numbering of the source. A value given as a limit tells only on which side of the number the result lay.

B1: 108VH5.M11 / 108VL1.M5 (antibody, human IgG4 S228P, kappa, V domains shown)
VH: EVQLVQSGAEVKKPGASVKVSCKASGYTFTHHYIHWVRQAPGQGLEWMGMIDASDSETRYAQKFQGRVTMTRDTSTSTVYMELSSLRSEDTAVYYCARLGRYYFDYWGQGTLVTVSS
VL: EIVLTQSPATLSLSPGERATLSCRASQSVSSYLAWYQQKPGQAPRLLIYGASNRATGIPARFSGSGSGTDFTLTISSLEPEDFAVYYCGESYGHLYTFGGGTKVEIKR
notes: Full-length IgG4 (S228P), kappa; also called VH5.M11 VL1.M5
As a reminder, the EC50 is the concentration needed to bring the measured effect to its halfway point. Usually Kd stands for the free concentration of one partner at which half of the binding sites on the other are occupied at equilibrium, for simple one-to-one binding. In general, koff refers to the first-order rate constant of dissociation. The kon is the rate constant with which the complex forms. The low end stands for slow association, the high end for fast association. In the case of B1, in experiment [1], a half-maximal effect (EC50) was put at 178 nM and the “Fitted Maximal MFI” value worked out at 1540 MFI. In addition, in experiment [2], the half-maximal effective concentration (EC50) was 797 nM and the “Fitted Maximal MFI” value was 4000 MFI. Moreover, in the experiment with Human CD47-C33G [3], the Kd is greater than 530 nM and the koff was greater than 0.1 s⁻¹. In experiment [4], this molecule had a Kd of 12 nM, an off-rate (koff) of 0.0032 s⁻¹ and a kon of 260000 M⁻¹ s⁻¹. The molecule further registered a kon with Human CD47-C33G [5] of 190000 M⁻¹ s⁻¹.

B2: 108VH5.M22 / 108VL1.M5 (antibody, human IgG4 S228P, kappa, V domains shown)
VH: B1 VH with Y33W, I34M, S56I
VL: B1 VL
notes: Full-length IgG4 (S228P), kappa; also called VH5.M22 VL1.M5
In experiment [6], B2 showed a dissociation constant Kd of 6.1 nM, an off-rate constant (koff) of 0.0029 s⁻¹ and an on-rate (kon) of 480000 M⁻¹ s⁻¹. Also, in the experiment with Human CD47-C33G [7], binding was put at a Kd of 35 nM, the koff turned out to be 0.0068 s⁻¹ and the kon worked out at 200000 M⁻¹ s⁻¹. In experiment [2], the midpoint of the response, the EC50, lay at 8.4 nM and the “Fitted Maximal MFI” value turned out to be 41600 MFI. The molecule also registered a 50% effective concentration (EC50) in experiment [8] of 10.1 nM. The molecule also displayed a concentration for a half-maximal effect (EC50) in experiment [9] of 3.6 nM. Moreover, in experiment [10], the “CCRF-CEM phagocytosis EC50” value turned out to be 0.37 nM and the “CCRF-CEM phagocytosis, Phagocytosis (%)” value was found to be 59.4%. In addition, the EC50 in experiment [11] stood at 3.6 nM.

B3: 108VH5.M15 / 108VL1.M5 (antibody, human IgG4 S228P, kappa, V domains shown)
VH: B1 VH with Y33W, E57S
VL: B1 VL
notes: Full-length IgG4 (S228P), kappa; also called VH5.M15 VL1.M5
Consider B3, for which, in experiment [1], the response was half-maximal at 155 nM (EC50) and the “Fitted Maximal MFI” value was determined as 926 MFI. In addition, in experiment [2], the EC50 worked out at 396 nM and the “Fitted Maximal MFI” value amounted to 3680 MFI. Also, in the experiment with Human CD47-C33G [3], the Kd was greater than 630 nM and the koff is greater than 0.1 s⁻¹. Further, in experiment [4], the affinity, expressed as Kd, was 22 nM; the off-rate constant (koff) was determined as 0.0048 s⁻¹; the kon was determined as 220000 M⁻¹ s⁻¹. The molecule further returned a kon with Human CD47-C33G [5] of 160000 M⁻¹ s⁻¹.

B4: 108VH10.Mr / 108VL10.Me (antibody, V domains shown)
VH: EVQLVESGGGLVQPGGSLRLSCAASGFTFSHHWIHWVRQAPGKGLEWVAMIDASDSETRLVDSVKGRFTISADTSKNTAYLQMNSLRAEDTAVYYCSRLGRYYFDYWGQGTLVTVSS
VL: DIQMTQSPSSLSASVGDRVTITCRASQSISSYLNWYQQKPGKAPKLLIYGASSRYSGVPSRFSGSRSGTDFTLTISSLQPEDFATYYCGESYGHLYTFGQGTKVEIK
notes: 4D5-framework series; constant regions not restated for this series; also called VH10.Mr VL10.Me
Regarding B4, the EC50 stood at 8.1 nM in experiment [1], 14.4 nM in experiment [2], 15.7 nM in experiment [12] and 49.9 nM in experiment [15]. In addition, the “Fitted Maximal MFI” value stood at 15700 MFI in [1] and 25400 MFI in experiment [2]. Further, the values for the Kd (in [13]; with Human CD47-C33G [14]) were 8.8 nM and 160 nM, respectively. Besides, the koff in [13] was determined as 0.0031 s⁻¹; with Human CD47-C33G [14], 0.025 s⁻¹. Besides, the kon in experiment [13] was found to be 360000 M⁻¹ s⁻¹; with Human CD47-C33G [14], 150000 M⁻¹ s⁻¹. For the same molecule, the “CCRF-CEM phagocytosis EC50” value in [10] came out at 0.43 nM. Besides, in experiment [10], the “CCRF-CEM phagocytosis, Phagocytosis (%)” value came out at 49.8%.

B5: 108VH10.Mq / 108VL10.Me (antibody, V domains shown)
VH: B4 VH with V61S
VL: B4 VL
notes: 4D5-framework series; constant regions not restated for this series; also called VH10.Mq VL10.Me
Regarding B5, the EC50 in [1] amounted to 3.9 nM; in experiment [2], 8 nM; in experiment [12], 6.4 nM; in experiment [15] it was 8.4 nM. In addition, the “Fitted Maximal MFI” value in experiment [1] was 19400 MFI; in experiment [2], 27400 MFI. Further, the equilibrium dissociation constant (Kd) came to 7.5 nM in experiment [13] and 120 nM with Human CD47-C33G [14]. In addition, the off-rate (koff) in experiment [13] was found to be 0.0045 s⁻¹; with Human CD47-C33G [14], 0.024 s⁻¹. The on-rate constant (kon) was 600000 M⁻¹ s⁻¹ in [13] and 190000 M⁻¹ s⁻¹ with Human CD47-C33G [14]. In experiment [10], the “CCRF-CEM phagocytosis EC50 (nM); plateau not reached” value came to 2.3 nM.

B6: 108VH10.Mc / 108VL10.M1 (antibody, V domains shown)
VH: B4 VH with F27Y, T28S, S30T, H35S, A53P, V61S, D62Q, S63K, V64F, G66D
VL: B4 VL with Q27E, S28N, I29V, S30G, S31T, L33I, N34S, S53N, S56T
notes: 4D5-framework series; constant regions not restated for this series; also called VH10.Mc VL10.M1
Turning to B6, in the experiment with Human CD47-C33G [16], the Kd was greater than 1600 nM and the off-rate (koff) is greater than 0.1 s⁻¹. In experiment [17], this molecule had a Kd of 21 nM, an off-rate (koff) of 0.0054 s⁻¹ and a kon of 250000 M⁻¹ s⁻¹. Further, in the experiment with Human CD47-C33G [18], the kon stood at 61000 M⁻¹ s⁻¹.

B7: 108VH10 / 108VL10.Mb (antibody, V domains shown)
VH: B4 VH with F27Y, T28S, S30T, A53P, V61S, D62Q, S63K, V64F, G66D
VL: B4 VL with Q27E, S28N, I29V, S30G, S31T, L33I, N34S, G50A, S53N, S56T
notes: 4D5-framework series; constant regions not restated for this series; also called VH10 VL10.Mb
As to B7, in the experiment with Human CD47-C33G [19], the “fold reduction of mono-valent binding affinity against the straight-graft antibody” value is 7.7 fold. In [17], this molecule had a dissociation constant Kd of 38 nM, a koff of 0.011 s⁻¹ and an association rate constant (kon) of 290000 M⁻¹ s⁻¹. In the experiment with Human CD47-C33G [18], the affinity, expressed as Kd, was 330 nM; the koff came out at 0.016 s⁻¹; the kon was determined as 47000 M⁻¹ s⁻¹.

B8: 108VH10.Mf / 108VL10.M1 (antibody, V domains shown)
VH: B4 VH with F27Y, T28S, S30T, A53P
VL: B4 VL with Q27E, S28N, I29V, S30G, S31T, L33I, N34S, S53N, S56T
notes: 4D5-framework series; constant regions not restated for this series; also called VH10.Mf VL10.M1
With B8, in the experiment with Human CD47-C33G [19], the “fold reduction of mono-valent binding affinity compared to 108VH10” value amounted to 6.7 fold. Moreover, in [17], the dissociation constant (Kd) was 30 nM, the koff is 0.0071 s⁻¹ and the kon was 230000 M⁻¹ s⁻¹. In the experiment with Human CD47-C33G [18], the equilibrium dissociation constant (Kd) amounted to 290 nM, the koff was determined as 0.014 s⁻¹ and the on-rate (kon) turned out to be 49000 M⁻¹ s⁻¹.
